The experiment has as its target T1, human Tie2-Fc (hTie2-Fc) (Homo sapiens, UniProt Q02763).
T1 construct: Purified human or mouse Tie2-Fc (i.e., Fc-conjugated extracellular domains of Tie2); purchased R&D Systems 313-TI-100
Put plainly: SPR binding to human Tie2-Fc. To be noted: 37°C; for binding to Tie2-Fc: human Tie2-Fc, 0.625–10 nM, pH 7.4, Fig9C. The source says:
To better understand the difficulties we had in observing Tie2 activation by VT, we sought to characterize the binding affinity and kinetics of VT to Tie2. Purified human or mouse Tie2-Fc (i.e., Fc-conjugated extracellular domains of Tie2) were first coupled to protein A sepharose beads for pull-down experiments (Fig9A and B) or immobilized on a Biacore CM5 sensor chip for surface plasmon resonance (SPR) experiments (Fig9C and Supplementary Fig S3).
Figure 9 Binding of Vasculotide vs. Ang1 variants to the extracellular domain of Tie2 • A–B Pull-down assay. Input ligands—rhAng1 (A) and VT (B)—were incubated with either protein A sepharose beads only, bead-conjugated mouse Tie2-Fc (mTie2), or bead-conjugated human Tie2-Fc (hTie2). […] The ‘unbound’ fraction is 7% of residual/free ligands remaining in the supernatant. • C Quantitative kinetics analysis by SPR. All analytes were run at increasing concentrations of 0.625, 1.25, 2.5, 5, and 10 nM, at 37°C and pH 7.4. […] Source data are available online for this figure. […]
9. Tie2 Receptor-Binding Assays
Vasculotide (VT) was manufactured by Bachem UK Ltd. T7c (CHHHRHSF) was synthesized by Genscript (Piscataway, NJ, USA). PEG-Cys consists of a single cysteine reacted to each of the 4 arms of PEG-maleimide (Sunbright PTE-100MA, NOF Corporation, Tokyo, Japan). BowAng1 (Ang1-Fd-Fc-Fd) was made and provided by Regeneron Pharmaceuticals, Inc. (Tarrytown, NY, USA). COMP-Ang1 was purified in the Kerbel lab from serum-free culture media conditioned by an engineered CHO cell line provided by Dr. Gou Young Koh (KAIST), according to published protocols (Hwang et al, 2008).
Recombinant human Angiopoietin-1 (rhAng1) and Vascular Endothelial Growth Factor ( rhVEGF) were […]
purchased from R&D Systems. […]
(structural/molecular weight control for VT), and 40 μL of supernatant (7% of residual/unbound ligand) – were similarly boiled in SDS sample buffer. Ang1 samples and controls were resolved by 7.5% polyacrylamide gel electrophoresis (PAGE), electroblotted onto PVDF membranes, and probed with an anti-Ang1 antibody (R&D Sytems, AF923; diluted 1:2,000 in TBS supplemented with 7% BSA and 0.1% Tween-20) at 75kDa (reduced monomers). VT samples and controls were resolved by 17% PAGE, blotted onto PVDF membranes, and probed with an anti-PEG antibody (Silver Lake Research, CH2074; diluted 1:4,000 in TBS supplemented with 7% BSA and 0.05% CHAPS*) at higher “apparent” molecular weights than the expected 14 and 10kDa due to their polymeric nature and large hydrodynamic radii (Zheng et al, 2007). *Note: non-ionic, PEO-based, polymer detergents were avoided at these steps as they cross-react with the anti-PEG antibody used for detecting VT.
Surface Plasmon Resonance (SPR) Experiments: The binding of analytes – VT, T7c peptide, PEG-Cys, rhAng1, COMP-Ang1, BowAng1, and rhVEGF – to the extracellular domain of Tie2 were […]
investigated by SPR using a Biacore T200 Instrument (GE Healthcare). For qualitative binding analysis, mTie2-Fc was dissolved in 10mM acetate buffer (pH 4.5) and immobilized at high density onto a CM5 sensor chip using amine coupling chemistry as described by the manufacturer to a response of 11,500RU.
Binding analysis were performed by exposure of immobilized mTie2-Fc to the analytes diluted in HBS-EP (0.01M HEPES pH 7.4, 0.15M NaCl, 3mM EDTA, 0.005% v/v Tween-20), which was supplemented with 1mg/mL carboxymethyl dextran (NSB reducer, GE Healthcare) to reduce non-specific binding to the sensor chip. Analytes were injected at 30μL/min (association time 120s, dissociation time 120s) at 37 °C, and the chip surface was regenerated each cycle by a 60s pulse of 4M MgCl2. To quantitatively determine the kinetic properties of the interaction (KD, kd, ka) and avoid mass transport limitations, mTie2-Fc and hTie2-Fc were immobilized at low density (1,000-1,200RU) onto separate flow cells of the CM5 chip using amine coupling chemistry. Kinetic analyses were performed using a single-cycle kinetic […]
(In general: In SPR one partner is held on a chip, and binding of the other changes the refractive index at the surface.)

Where [1] appears, read: Biacore T200, single-cycle kinetics, 1:1 model, 0.625–10 nM analyte, pH 7.4 (HBS-EP), Fig9C.

T1 sequence (Q02763 23-748 limits assumed): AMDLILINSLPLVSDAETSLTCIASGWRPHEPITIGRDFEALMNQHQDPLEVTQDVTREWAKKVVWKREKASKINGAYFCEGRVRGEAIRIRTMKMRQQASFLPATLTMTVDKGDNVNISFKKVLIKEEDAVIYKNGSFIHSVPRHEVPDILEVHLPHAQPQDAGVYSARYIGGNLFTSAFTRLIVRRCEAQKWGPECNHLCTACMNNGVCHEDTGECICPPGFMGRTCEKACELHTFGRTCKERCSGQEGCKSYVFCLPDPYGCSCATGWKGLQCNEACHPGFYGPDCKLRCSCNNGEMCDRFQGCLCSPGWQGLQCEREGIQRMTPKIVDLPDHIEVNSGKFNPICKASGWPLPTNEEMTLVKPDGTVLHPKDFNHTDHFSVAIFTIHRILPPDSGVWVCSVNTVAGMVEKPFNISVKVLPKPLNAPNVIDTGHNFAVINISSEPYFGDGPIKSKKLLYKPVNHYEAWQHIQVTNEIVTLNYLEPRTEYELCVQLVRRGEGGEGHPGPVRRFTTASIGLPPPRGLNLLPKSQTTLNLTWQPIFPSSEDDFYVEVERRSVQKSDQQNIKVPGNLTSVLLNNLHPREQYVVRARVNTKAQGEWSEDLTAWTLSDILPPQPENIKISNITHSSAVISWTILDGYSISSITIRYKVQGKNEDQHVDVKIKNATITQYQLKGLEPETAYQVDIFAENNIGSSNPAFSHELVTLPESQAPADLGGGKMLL

As for “CHHHRHSF [Vasculotide, 4-armed maleimide-functionalized polyethylene glycol (PEG) backbone to link together four cysteine-capped T7 peptides, that is, CHHHRHSF]”, the “binding to Tie2-Fc” value (listed as VT) is recorded as “no binding to Tie2-Fc was detectable”.

B1: recombinant human Ang1 (rhAng1) (ligand, UniProt Q15389 16-498, looked up)
chain: HIGCSNQRRSPENSGRRYNRIQHGQCAYTFILPEHDGNCRESTTDQYNTNALQRDAPHVEPDFSSQKLQHLEHVMENYTQWLQKLENYIVENMKSEMAQIQQNAVQNHTATMLEIGTSLLSQTAEQTRKLTDVETQVLNQTSRLEIQLLENSLSTYKLEKQLLQQTNEILKIHEKNSLLEHKILEMEGKHKEELDTLKEEKENLQGLVTRQTYIIQELEKQLNRATTNNSVLQKQQLELMDTVHNLVNLCTKEGVLLKGGKREEEKPFRDCADVYQAGFNKSGIYTIYINNMPEPKKVFCNMDVNGGGWTVIQHREDGSLDFQRGWKEYKMGFGNPSGEYWLGNEFIFAITSQRQYMLRIELMDWEGNRAYSQYDRFHIGNEKQNYRLYLKGHTGTAGKQSSLILHGADFSTKDADNDNCMCKCALMLTGGWWFDACGPSNLNGMFYTAGQNHGKLNGIKWHYFKGPSYSLRSTTMMIRPLDF
notes: angiopoietin-1, human, recombinant; also called angiopoietin-1; source: bought: R&D Systems (named for the Boyden chamber experiments)
Consider B1, for which the “binding to Tie2-Fc” value was “bound strongly”. Further, under setting [1], the “Off-rate, Kd” value came to 0.00029 s⁻¹ and the “On-rate, Ka” value was 1.4e+06 M⁻¹ s⁻¹.
